Experimental data published in patent publication US20230416305A1 (published 2023).
Bridges are numbered along the chain shown (N, C = ends). Where no end group is shown, it is not given here. [ ]: non-standard residue; d: D form. S5 = C=CCCC[C@](C)(N)C(=O)O

T1: ANK domain of Notch1 intracellular segment N1ICD (UniProt P46531 1872-2126)
T1 chain: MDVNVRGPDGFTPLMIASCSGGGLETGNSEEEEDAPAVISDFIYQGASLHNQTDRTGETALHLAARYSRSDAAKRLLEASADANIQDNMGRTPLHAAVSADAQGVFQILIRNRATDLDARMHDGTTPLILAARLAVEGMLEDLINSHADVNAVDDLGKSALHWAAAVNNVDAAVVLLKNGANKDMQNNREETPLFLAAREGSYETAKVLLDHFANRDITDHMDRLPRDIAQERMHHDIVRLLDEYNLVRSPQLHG

T2: ANK1 (α-helical region of the ANK domain of N1ICD) (UniProt P46531 1927-1956)
T2 chain: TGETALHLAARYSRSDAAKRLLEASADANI


How the values were obtained:
[1] = target: T1, ANK domain of Notch1 intracellular …; assay: SPR
[2] = target: T1, ANK domain of Notch1 intracellular …; assay: SPR
[3] = target: T2, ANK1 (α-helical region of the ANK …); assay: SPR
[4] = target: T1, ANK domain of Notch1 intracellular …; assay: SPR; FIG. 1D
[5] = target: T1, ANK domain of Notch1 intracellular …; assay: SPR; FIG. 1C
ANK2 = assay: SPR
ANK3 = assay: SPR
ANK6 = assay: SPR
ANK4 = assay: SPR
ANK5 = assay: SPR

Kd [1] [nM] | Binder | other results
51.1 | YAARIFYQLLSKQL [mAH2-3] | 
55.5 | YAKRIFYQLASKQL [mAH2-10] | 
25.8 | [S5]AKRIFY[S5]LLSKQL (staple 1-8) [SAH-mAH2-4] | 
0.898 | YAKRI[S5]YQLLSK[S5]L (staple 6-13) [SAH-mAH2-5 (stapled α-helix-modified α-helix 2-5)] | 
 | YAKRIFYQLLSKEL [AH2 (α-helix 2 of N1DARP)] | Kd [2]: 60.4 nM; Kd [3]: 4340 nM; Kd [4]: 60.4 nM
96.1 | AAKRIFYQLLSKQL [mAH2-1] | 
 | LLEKKRQY [AH1] | Kd [2]: 213 nM
87.4 | YAKRIFYALLSKQL [mAH2-8] | 
63.6 | YAKRIAYQLLSKQL [mAH2-6] | 
134 | [S5]AKR[S5]FYQLLSKQL (staple 1-5) [SAH-mAH2-1] | 
5980 | YAKRIFYQLLSKQA [mAH2-14] | 
78.2 | YAKRIFYQLLSAQL [mAH2-12] | 
 | YAKRIFYQLLSKQL [modified AH2 (mAH2), modified α-helice 2] | Kd [5]: 60.4 nM; Kd [4]: 45.2 nM
83.9 | YAKRIFYQLLAKQL [mAH2-11] | 
99 | YAKRIFYQLLSKAL [mAH2-13] | 
74.5 | YAKAIFYQLLSKQL [mAH2-4] | 
286 | YAKRIFYQALSKQL [mAH2-9] | 
97.7 | Y[S5]KRI[S5]YQLLSKQL (staple 2-6) [SAH-mAH2-2] | 
57.5 | YAKRAFYQLLSKQL [mAH2-5] | 
 | YAKRIFYQLLSKEL [AH2] | Kd (ANK2): 23300 nM; Kd (ANK3): 85800 nM; Kd (ANK6): 64200 nM; Kd (ANK4): 66100 nM; Kd (ANK5): 42800 nM
